Residue numbers refer to the chain shown, from its start. Names may count otherwise.
Assays:
Test in all cases: purified protein
purified protein [1] = substrate: O=S(O)(O)=S; type: biochemical, Saccharomyces cerevisiae
purified protein [2] = substrate: O=S(O)(O)=S; details: pH 7.4; 37.0 °C
purified protein [3] = substrate: O=S(O)(O)=S; type: biochemical, Homo sapiens; details: Reaction 1, sulfur donor, fixed KCN, 300 mM HEPES pH 7.4, room temperature
From the text: thiosulfate:cyanide sulfurtransferase, ferric thiocyanate colorimetry, Michaelis-Menten fit on TST

[4] = Reaction 1, sulfur donor, fixed KCN, 300 mM HEPES pH 7.4, 25 °C

B1: RDL1 (Saccharomyces cerevisiae S288C) (protein)
chain: MWKAVMNAWNGTESQSKNVSNIQSYSFEDMKRIVGKHDPNVVLVDVREPSEYSIVHIPASINVPYRSHPDAFALDPLEFEKQIGIPKPDSAKELIFYCASGKRGGEAQKVASSHGYSNTSLYPGSMNDWVSHGGDKLDL
Purified protein [1]; pH 7.4
  Km: 4.0 ± 0.4 mM

B2: TST (Homo sapiens; T253V) (protein)
chain: MVHQVLYRALVSTKWLAESIRTGKLGPGLRVLDASWYSPGTREARKEYLERHVPGASFFDIEECRDTASPYEMMLPSEAGFAEYVGRLGISNHTHVVVYDGEHLGSFYAPRVWWMFRVFGHRTVSVLNGGFRNWLKEGHPVTSEPSRPEPAVFKATLDRSLLKTYEQVLENLESKRFQLVDSRSQGRFLGTEPEPDAVGLDSGHIRGAVNMPFMDFLTEDGFEKGPEELRALFQTKKVDLSQPLIATCRKGVVACHVALAAYLCGKPDVAVYDGSWSEWFRRAPPESRVSQGKSEKA
Purified protein [2]
  Km: 2.43 ± 0.70 mM
  kcat: 0.025 s⁻¹

B3: TST (Homo sapiens) (protein)
chain: B2 chain with V253T
notes: codon-optimized synthetic gene, pET30a, E. coli BL21(DE3), Ni-NTA and size exclusion; tandem-domain rhodanese, active-site loop CRKGVT ending in Thr253
Purified protein [3]
  Km: 15.68 ± 2.86 mM
  kcat: 101.73 s⁻¹

B4: RDL2 (Saccharomyces cerevisiae S288C) (protein)
chain: MFKHSTGILSRTVSARSPTLVLRTFTTKAPKIYTFDQVRNLVEHPNDKKLLVDVREPKEVKDYKMPTTINIPVNSAPGALGLPEKEFHKVFQFAKPPHDKELIFLCAKGVRAKTAEELARSYGYENTGIYPGSITEWLAKGGADVKPKK
notes: His-tagged, pET30a, E. coli BL21(DE3), Ni-NTA and size exclusion; no firm dimer in crystal; active-site loop CAKGVR with Cys106 and Arg111
Purified protein [1]; [4]
  Km: 32.5 ± 3.50 mM
  kcat: 15.32 s⁻¹

B5: RDL2 (Saccharomyces cerevisiae S288C; K108A) (protein)
chain: B4 chain with K108A
notes: as for B4
Purified protein [1]; [4]
  Km: 93.23 ± 2.67 mM
  kcat: 8.71 s⁻¹
